Assay results: paper PMC12207370, “Macrocyclic Peptide Probes for Immunomodulatory Protein CD59: Potent Modulators of Bacterial Toxin Activity and Antibody‐Dependent Cytotoxicity” (Angewandte Chemie (International Ed. in English), 2025)

Target: T1, biotinylated CD59 (Homo sapiens, UniProt P13987)
T1 construct: Recombinant soluble human CD59 with an additional C-terminal cysteine residue
T1 sequence (P13987 26-102 limits assumed): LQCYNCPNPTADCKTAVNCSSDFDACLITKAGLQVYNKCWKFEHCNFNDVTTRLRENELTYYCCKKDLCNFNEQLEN
Test: mRNA-display cyclic peptide screen against CD59-biotin, NGS abundance after 6th selection round
Details: for Counts (raw counts for peptide sequence), Seq I: NGS sample Seq I; for Counts (raw counts for peptide sequence), Seq I / Counts (raw counts for peptide sequence), Seq II / Counts Seq I / Counts Seq II: sheet R6 (6th selection round); for Counts (raw counts for peptide sequence), Seq II: NGS sample Seq II; for Percentage of the pool, averaged across the two sequencing samples: average of Seq I and Seq II; for Percentage of the pool, averaged across the two sequencing samples / Percentage of the pool, Seq I / Percentage of the pool, Seq II / Percentage Seq I / Percentage Seq II / Percentage Average: sheet R6; for Percentage of the pool, Seq I: counts normalised by total counts of NGS sample Seq I; for Percentage of the pool, Seq II: counts normalised by total counts of NGS sample Seq II; for Percentage Seq I: counts normalised by total counts of sample Seq I; for Percentage Seq I / Percentage Seq II: percentage of the pool; for Percentage Seq II: counts normalised by total counts of sample Seq II; for Percentage Average: percentage of the pool averaged across the two sequencing samples; for Counts Seq I / Counts Seq II: raw NGS counts of peptide sequence; for Counts Seq I: sequencing sample Seq I; for Counts Seq II: sequencing sample Seq II
Outline: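 Peptide–mRNA fusions were made by in vitro translation with a customised PURE express kit. The kit lacked release factor 1 and methionine and was supplemented with […] initiator tRNA carrying N-chloroacetyl-d-tyrosine. Thioether macrocycles were formed, then enriched and amplified over iterative rounds on CD59-biotin immobilised on streptavidin beads. NGS read counts per sequence were recorded after the 6th selection round.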

WTRGSKDYARG
Counts (raw counts for peptide sequence), Seq I: 49 | Counts (raw counts for peptide sequence), Seq II: 5 | Percentage of the pool, averaged across the two sequencing samples: 0.011% | Percentage of the pool, Seq I: 0.011% | Percentage of the pool, Seq II: 0.012%

SWQNECFRLRT
Percentage Seq I: 0.013% | Percentage Seq II: 0.026% | Percentage Average: 0.019% | Counts Seq I: 58 | Counts Seq II: 11

VKYGNSNFVRE
Percentage Seq I: 0.047% | Percentage Seq II: 0.060% | Percentage Average: 0.054% | Counts Seq I: 207 | Counts Seq II: 26

HVFGNKSFTRG
Counts (raw counts for peptide sequence), Seq I: 63 | Counts (raw counts for peptide sequence), Seq II: 9 | Percentage of the pool, averaged across the two sequencing samples: 0.018% | Percentage of the pool, Seq I: 0.014% | Percentage of the pool, Seq II: 0.021%

DPICTRYNDPR
Counts (raw counts for peptide sequence), Seq I: 46 | Counts (raw counts for peptide sequence), Seq II: 5 | Percentage of the pool, averaged across the two sequencing samples: 0.011% | Percentage of the pool, Seq I: 0.011% | Percentage of the pool, Seq II: 0.012%

WVYGSSTFRYQ
Percentage Seq I: 0.030% | Percentage Seq II: 0.030% | Percentage Average: 0.030% | Counts Seq I: 133 | Counts Seq II: 13

CFVSRTQIGSV
Counts (raw counts for peptide sequence), Seq I: 85 | Counts (raw counts for peptide sequence), Seq II: 2 | Percentage of the pool, averaged across the two sequencing samples: 0.012% | Percentage of the pool, Seq I: 0.019% | Percentage of the pool, Seq II: 0.00464%

HVFGNGSFTRG
Percentage Seq I: 0.031% | Percentage Seq II: 0.035% | Percentage Average: 0.033% | Counts Seq I: 137 | Counts Seq II: 15

WATGSATFSSG
Percentage Seq I: 0.730% | Percentage Seq II: 0.673% | Percentage Average: 0.702% | Counts Seq I: 3196 | Counts Seq II: 290

CAWGNRHIAYY
Percentage Seq I: 0.183% | Percentage Seq II: 0.195% | Percentage Average: 0.189% | Counts Seq I: 800 | Counts Seq II: 84

CFAGRLAIDAV
Counts (raw counts for peptide sequence), Seq I: 54 | Counts (raw counts for peptide sequence), Seq II: 8 | Percentage of the pool, averaged across the two sequencing samples: 0.015% | Percentage of the pool, Seq I: 0.012% | Percentage of the pool, Seq II: 0.019%

HCWVRGSRDYT
Percentage Seq I: 0.028% | Percentage Seq II: 0.046% | Percentage Average: 0.037% | Counts Seq I: 122 | Counts Seq II: 20

LVRGDLYSVLG
Counts (raw counts for peptide sequence), Seq I: 85 | Counts (raw counts for peptide sequence), Seq II: 7 | Percentage of the pool, averaged across the two sequencing samples: 0.018% | Percentage of the pool, Seq I: 0.019% | Percentage of the pool, Seq II: 0.016%

CFSRRLTAGAS
Percentage Seq I: 0.024% | Percentage Seq II: 0.028% | Percentage Average: 0.026% | Counts Seq I: 106 | Counts Seq II: 12

CFQNRVSGSGAL
Percentage Seq I: 0.119% | Percentage Seq II: 0.116% | Percentage Average: 0.118% | Counts Seq I: 522 | Counts Seq II: 50

YVRGDAWTVLG
Percentage Seq I: 0.027% | Percentage Seq II: 0.019% | Percentage Average: 0.023% | Counts Seq I: 117 | Counts Seq II: 8

CYGGRTFTYAWS
Percentage Seq I: 0.241% | Percentage Seq II: 0.306% | Percentage Average: 0.274% | Counts Seq I: 1056 | Counts Seq II: 132

IARGDRTFSFG
Percentage Seq I: 0.013% | Percentage Seq II: 0.035% | Percentage Average: 0.024% | Counts Seq I: 57 | Counts Seq II: 15

CFRNRIDLIS
Counts (raw counts for peptide sequence), Seq I: 49 | Counts (raw counts for peptide sequence), Seq II: 5 | Percentage of the pool, averaged across the two sequencing samples: 0.011% | Percentage of the pool, Seq I: 0.011% | Percentage of the pool, Seq II: 0.012%

CFSRRSTSSQST
Percentage Seq I: 0.018% | Percentage Seq II: 0.019% | Percentage Average: 0.018% | Counts Seq I: 77 | Counts Seq II: 8

WRDRFDQCVR
Percentage Seq I: 0.039% | Percentage Seq II: 0.053% | Percentage Average: 0.046% | Counts Seq I: 169 | Counts Seq II: 23

DPYCPFFPEFR
Counts (raw counts for peptide sequence), Seq I: 52 | Counts (raw counts for peptide sequence), Seq II: 5 | Percentage of the pool, averaged across the two sequencing samples: 0.012% | Percentage of the pool, Seq I: 0.012% | Percentage of the pool, Seq II: 0.012%

FIRGNSTSVLF
Percentage Seq I: 1.617% | Percentage Seq II: 1.838% | Percentage Average: 1.728% | Counts Seq I: 7076 | Counts Seq II: 792

SWTWGNRNSVRG
Percentage Seq I: 0.043% | Percentage Seq II: 0.065% | Percentage Average: 0.054% | Counts Seq I: 190 | Counts Seq II: 28

WRDRFDQCAL
Counts (raw counts for peptide sequence), Seq I: 67 | Counts (raw counts for peptide sequence), Seq II: 6 | Percentage of the pool, averaged across the two sequencing samples: 0.015% | Percentage of the pool, Seq I: 0.015% | Percentage of the pool, Seq II: 0.014%

SWTRGNRSSVRG
Counts (raw counts for peptide sequence), Seq I: 44 | Counts (raw counts for peptide sequence), Seq II: 5 | Percentage of the pool, averaged across the two sequencing samples: 0.011% | Percentage of the pool, Seq I: 0.010% | Percentage of the pool, Seq II: 0.012%

CYGNSHASWG
Percentage Seq I: 0.483% | Percentage Seq II: 0.469% | Percentage Average: 0.476% | Counts Seq I: 2115 | Counts Seq II: 202

WRDRFDQCVP
Percentage Seq I: 0.038% | Percentage Seq II: 0.053% | Percentage Average: 0.046% | Counts Seq I: 167 | Counts Seq II: 23

ITRGSNIYAYG
Counts (raw counts for peptide sequence), Seq I: 79 | Counts (raw counts for peptide sequence), Seq II: 6 | Percentage of the pool, averaged across the two sequencing samples: 0.016% | Percentage of the pool, Seq I: 0.018% | Percentage of the pool, Seq II: 0.014%

YIYWSFTSARG
Percentage Seq I: 0.050% | Percentage Seq II: 0.032% | Percentage Average: 0.041% | Counts Seq I: 219 | Counts Seq II: 14

CYGGRTFVYAWS
Percentage Seq I: 0.103% | Percentage Seq II: 0.104% | Percentage Average: 0.104% | Counts Seq I: 450 | Counts Seq II: 45

CFSARTDSSGT
Percentage Seq I: 0.053% | Percentage Seq II: 0.039% | Percentage Average: 0.046% | Counts Seq I: 231 | Counts Seq II: 17

CFSARATLDGGW
Percentage Seq I: 0.036% | Percentage Seq II: 0.030% | Percentage Average: 0.033% | Counts Seq I: 157 | Counts Seq II: 13

YIIGSSDYTRG
Percentage Seq I: 0.033% | Percentage Seq II: 0.039% | Percentage Average: 0.036% | Counts Seq I: 146 | Counts Seq II: 17

CFAGRLTIDAAAAAAARTGGG
Counts (raw counts for peptide sequence), Seq I: 62 | Counts (raw counts for peptide sequence), Seq II: 9 | Percentage of the pool, averaged across the two sequencing samples: 0.018% | Percentage of the pool, Seq I: 0.014% | Percentage of the pool, Seq II: 0.021%
